In the supplement of paper PMC10567573:

B1: TOR1AIP2 (parent)
chain: HHVADAYTSSQKVSPIQIDGAGRT

Variants of: B1
Experiment: protein stability index of a GFP-peptide fusion (GPS, HEK-293T) (PSI 1-6); higher = more stable
Conditions: c terminus: a fixed tail appended
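Note: lentivirally expressed fusions sorted by FACS into six bins by GFP to DsRed ratio, PSI derived from sequencing read proportions per bin multiplied by bin number.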

Variant | protein stability index
HHVAGAYTSSQKVSPIQIDGAGRT [D5G] | 3.97
HHVAHAYTSSQKVSPIQIDGAGRT [D5H] | 2.38
HHVAIAYTSSQKVSPIQIDGAGRT [D5I] | 2.5
HHVAKAYTSSQKVSPIQIDGAGRT [D5K] | 3.19
HHVALAYTSSQKVSPIQIDGAGRT [D5L] | 2.44
HHVAMAYTSSQKVSPIQIDGAGRT [D5M] | 2.48
HHVANAYTSSQKVSPIQIDGAGRT [D5N] | 3.33
HHVAPAYTSSQKVSPIQIDGAGRT [D5P] | 3.54
HHVAQAYTSSQKVSPIQIDGAGRT [D5Q] | 2.93
HHVARAYTSSQKVSPIQIDGAGRT [D5R] | 3.6
HHVASAYTSSQKVSPIQIDGAGRT [D5S] | 2.72
HHVATAYTSSQKVSPIQIDGAGRT [D5T] | 3.68
HHVAVAYTSSQKVSPIQIDGAGRT [D5V] | 2.7
HHVAWAYTSSQKVSPIQIDGAGRT [D5W] | 4.17
HHVAYAYTSSQKVSPIQIDGAGRT [D5Y] | 2.35
HHVADCYTSSQKVSPIQIDGAGRT [A6C] | 3.98
HHVADDYTSSQKVSPIQIDGAGRT [A6D] | 4.19
HHVADEYTSSQKVSPIQIDGAGRT [A6E] | 4.77
HHVADFYTSSQKVSPIQIDGAGRT [A6F] | 2.69
HHVADGYTSSQKVSPIQIDGAGRT [A6G] | 4.39
HHVADHYTSSQKVSPIQIDGAGRT [A6H] | 3.85
HHVADIYTSSQKVSPIQIDGAGRT [A6I] | 3.67
HHVADKYTSSQKVSPIQIDGAGRT [A6K] | 4.03
HHVADLYTSSQKVSPIQIDGAGRT [A6L] | 3.2

Variant | protein stability index
HHVADMYTSSQKVSPIQIDGAGRT [A6M] | 3.46
HHVADNYTSSQKVSPIQIDGAGRT [A6N] | 4.26
HHVADPYTSSQKVSPIQIDGAGRT [A6P] | 4.3
HHVADQYTSSQKVSPIQIDGAGRT [A6Q] | 4.32
HHVADRYTSSQKVSPIQIDGAGRT [A6R] | 3.95
HHVADSYTSSQKVSPIQIDGAGRT [A6S] | 4.14
HHVADTYTSSQKVSPIQIDGAGRT [A6T] | 4.02
HHVADVYTSSQKVSPIQIDGAGRT [A6V] | 3.48
HHVADWYTSSQKVSPIQIDGAGRT [A6W] | 2.19
HHVADYYTSSQKVSPIQIDGAGRT [A6Y] | 3.32
HHVADAATSSQKVSPIQIDGAGRT [Y7A] | 5.04
HHVADACTSSQKVSPIQIDGAGRT [Y7C] | 4.19
HHVADADTSSQKVSPIQIDGAGRT [Y7D] | 4.67
HHVADAETSSQKVSPIQIDGAGRT [Y7E] | 4.97
HHVADAFTSSQKVSPIQIDGAGRT [Y7F] | 2.73
HHVADAGTSSQKVSPIQIDGAGRT [Y7G] | 4.6
HHVADAHTSSQKVSPIQIDGAGRT [Y7H] | 4.84
HHVADAITSSQKVSPIQIDGAGRT [Y7I] | 4.75
HHVADAKTSSQKVSPIQIDGAGRT [Y7K] | 4.65
HHVADALTSSQKVSPIQIDGAGRT [Y7L] | 4.55
HHVADAMTSSQKVSPIQIDGAGRT [Y7M] | 4.7
HHVADANTSSQKVSPIQIDGAGRT [Y7N] | 4.89
HHVADAPTSSQKVSPIQIDGAGRT [Y7P] | 4.91
HHVADAQTSSQKVSPIQIDGAGRT [Y7Q] | 4.5

Variant | protein stability index
HHVADARTSSQKVSPIQIDGAGRT [Y7R] | 4.43
HHVADASTSSQKVSPIQIDGAGRT [Y7S] | 4.87
HHVADATTSSQKVSPIQIDGAGRT [Y7T] | 4.98
HHVADAVTSSQKVSPIQIDGAGRT [Y7V] | 4.62
HHVADAWTSSQKVSPIQIDGAGRT [Y7W] | 2.12
HHVADAYASSQKVSPIQIDGAGRT [T8A] | 4.09
HHVADAYCSSQKVSPIQIDGAGRT [T8C] | 2.78
HHVADAYDSSQKVSPIQIDGAGRT [T8D] | 4.66
HHVADAYESSQKVSPIQIDGAGRT [T8E] | 4.38
HHVADAYFSSQKVSPIQIDGAGRT [T8F] | 3.27
HHVADAYGSSQKVSPIQIDGAGRT [T8G] | 3.87
HHVADAYHSSQKVSPIQIDGAGRT [T8H] | 4.14
HHVADAYISSQKVSPIQIDGAGRT [T8I] | 2.82
HHVADAYKSSQKVSPIQIDGAGRT [T8K] | 3.49
HHVADAYLSSQKVSPIQIDGAGRT [T8L] | 4.14
HHVADAYMSSQKVSPIQIDGAGRT [T8M] | 3.89
HHVADAYNSSQKVSPIQIDGAGRT [T8N] | 3.88
HHVADAYPSSQKVSPIQIDGAGRT [T8P] | 4.38
HHVADAYQSSQKVSPIQIDGAGRT [T8Q] | 3.85
HHVADAYRSSQKVSPIQIDGAGRT [T8R] | 3.49
HHVADAYSSSQKVSPIQIDGAGRT [T8S] | 3.69
HHVADAYVSSQKVSPIQIDGAGRT [T8V] | 3.3
HHVADAYWSSQKVSPIQIDGAGRT [T8W] | 2.86
HHVADAYYSSQKVSPIQIDGAGRT [T8Y] | 3.45

Variant | protein stability index
HHVADAYTASQKVSPIQIDGAGRT [S9A] | 2.91
HHVADAYTCSQKVSPIQIDGAGRT [S9C] | 1.95
HHVADAYTDSQKVSPIQIDGAGRT [S9D] | 4.04
HHVADAYTESQKVSPIQIDGAGRT [S9E] | 3.11
HHVADAYTFSQKVSPIQIDGAGRT [S9F] | 2.9
HHVADAYTGSQKVSPIQIDGAGRT [S9G] | 3.79
HHVADAYTHSQKVSPIQIDGAGRT [S9H] | 3.77
HHVADAYTISQKVSPIQIDGAGRT [S9I] | 2.42
HHVADAYTKSQKVSPIQIDGAGRT [S9K] | 4.43
HHVADAYTLSQKVSPIQIDGAGRT [S9L] | 3.28
HHVADAYTMSQKVSPIQIDGAGRT [S9M] | 3.52
HHVADAYTNSQKVSPIQIDGAGRT [S9N] | 3.54
HHVADAYTPSQKVSPIQIDGAGRT [S9P] | 2.58
HHVADAYTQSQKVSPIQIDGAGRT [S9Q] | 3.15
HHVADAYTRSQKVSPIQIDGAGRT [S9R] | 3.75
HHVADAYTTSQKVSPIQIDGAGRT [S9T] | 2.82
HHVADAYTVSQKVSPIQIDGAGRT [S9V] | 1.62
HHVADAYTWSQKVSPIQIDGAGRT [S9W] | 2.65
HHVADAYTYSQKVSPIQIDGAGRT [S9Y] | 3.78
HHVADAYTSAQKVSPIQIDGAGRT [S10A] | 3
HHVADAYTSCQKVSPIQIDGAGRT [S10C] | 2.96
HHVADAYTSDQKVSPIQIDGAGRT [S10D] | 4.33
